Paper PMC4609913

How the values were obtained:
[1] = molecular target: recombinant ADAM12 (A Disintegrin and Metalloproteinase 12), activated by furin (UniProt O43184); assay: enzyme inhibition assay (fluorogenic FRET-peptide protease activity); 6-point dilution of PA12 incubated with 5 nM recombinant ADAM12 for 10 min before the substrate; 15 uM Dabcyl-LAQAhomopheRSK(FAM)-NH2, 25 mM Tris pH 8, 10^-3% Brij-35, 10 mM CaCl2, 15 uM furin inhibitor 1, RT; Ki inferred from dose-response curves
[2] = molecular target: recombinant ADAM12 (A Disintegrin and Metalloproteinase 12), activated by furin (UniProt O43184)

recombinant ADAM12 (A Disintegrin and Metalloproteinase 12), activated by furin, sequence (O43184 whole entry): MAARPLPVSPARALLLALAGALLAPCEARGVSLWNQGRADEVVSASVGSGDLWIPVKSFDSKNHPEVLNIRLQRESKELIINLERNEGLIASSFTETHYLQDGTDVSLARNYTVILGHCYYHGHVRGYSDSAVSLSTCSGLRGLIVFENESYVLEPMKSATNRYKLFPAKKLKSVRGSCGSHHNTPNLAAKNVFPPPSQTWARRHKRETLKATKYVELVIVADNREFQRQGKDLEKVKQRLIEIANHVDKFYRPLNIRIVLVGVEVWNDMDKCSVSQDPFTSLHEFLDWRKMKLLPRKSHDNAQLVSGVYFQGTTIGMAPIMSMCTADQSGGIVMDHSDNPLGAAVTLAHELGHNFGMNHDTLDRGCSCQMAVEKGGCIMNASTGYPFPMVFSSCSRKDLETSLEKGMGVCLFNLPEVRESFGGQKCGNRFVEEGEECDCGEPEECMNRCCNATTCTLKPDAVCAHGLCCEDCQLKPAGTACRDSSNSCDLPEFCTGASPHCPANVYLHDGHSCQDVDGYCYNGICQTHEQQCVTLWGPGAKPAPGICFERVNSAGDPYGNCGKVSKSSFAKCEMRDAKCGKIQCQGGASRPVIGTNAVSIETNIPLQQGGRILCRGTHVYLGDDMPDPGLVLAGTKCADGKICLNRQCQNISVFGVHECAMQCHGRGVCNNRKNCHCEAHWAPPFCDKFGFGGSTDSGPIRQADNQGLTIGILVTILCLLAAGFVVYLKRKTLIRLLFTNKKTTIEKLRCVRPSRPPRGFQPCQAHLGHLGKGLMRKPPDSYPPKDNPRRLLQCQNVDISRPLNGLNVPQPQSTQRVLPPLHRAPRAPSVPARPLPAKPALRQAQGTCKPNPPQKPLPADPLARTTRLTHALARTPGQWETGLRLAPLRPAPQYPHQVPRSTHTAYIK

Ki [1]: 430 nM | relative level of intact transmembrane HB-EGF on 12Z-HE cells (live-cell Myc immunostaining, flow cytometry) after 2 uM PA12 for 3 h [2]: 20%
B1: recombinant His-tagged human ADAM12 prodomain (amino acids 29-206) (domain or fragment)
chain: RGVSLWNQGRADEVVSASVGSGDLWIPVKSFDSKNHPEVLNIRLQRESKELIINLERNEGLIASSFTETHYLQDGTDVSLARNYTVILGHCYYHGHVRGYSDSAVSLSTCSGLRGLIVFENESYVLEPMKSATNRYKLFPAKKLKSVRGSCGSHHNTPNLAAKNVFPPPSQTWARRHK
